Measured values: patent US7670806B2, “ADP-ribosyl acceptor hydrolase 3 (ARH3) polypeptides and methods of use” (The United States of America as represented by the …, priority 2005, dated 2010)

How the values were obtained:
[1] = Hydrolysis of O-acetyl-[14C]ADP-ribose by ARH proteins / PARG (RP-HPLC); type: biochemical; details: 1.5 pmol wild type or mutant human ARH3 or 20 mU PARG, 2 h at 30° C.; mouse ARH1, 2, 3
Procedure: FIG. 13A is a graph illustrating the results from incubation of 1.5 pmol of mouse ARH3 with or without 5 mM DTT and/or 10 mM MgCl2 as described in FIG. 11B with incubation for 1 h at 30° C. FIG. 13B is a graph illustrating the results from incubation of 1.5 pmol of wild type or mutant human (D77-78) ARH3 or 20 mU of PARG for 2 h at 30° C. *D77,78, assays incubated with 15 pmol of mutant human ARH3 (D77, D78).
FIG. 14A is a graph of the results from incubation with the indicated amount of mouse ARH1, 2, or 3 for 2 h at 30° C. FIG. 14B is a graph of the results from incubation with 230 pmol of mouse ARH1 at 30° C. for the indicated time.
Mouse ARH3 (2 pmol) and 2.5 μM O-acetyl-[^14C]ADP-ribose (5,000 cpm) in 200 μl of buffer containing 50 mM potassium phosphate (pH 7.0), 10 mM MgCl2 and 5 mM DTT were incubated for 2 h at 30° C., before separation of substrate and products using RP-HPLC as described below.
Hydrolysis of O-acetyl-[^14C]ADP-ribose catalyzed by ARH3. Assays containing the indicated concentration of O-acetyl-[^14C]-ADP-ribose (0.1 to 2 nmol, 1,000 to 20,000 cpm) and 1.5 pmol of ARH3 in 200 μl of buffer (50 mM KPO4 (pH 7.0), 10 mM MgCl2, 5 mM DTT) were incubated at 30° C. for 20 min. Substrate and products were separated using RP-HPLC. Amounts of product were corrected for ADP-ribose produced in the absence of ARH3 before calculation of hydrolysis rates.
Because O-acetyl-ADP-ribose was known to be hydrolyzed at alkaline pH Tanny and Moazed (2001), Proc Natl Acad Sci USA. 98(2):415-20, Epub Dec. 26, 2000), it was generated at pH 7.0 in the presence of [^14C-adenine] β-NAD, Sir2, and acetylated histone H3 peptide (FIG. 11A), and the products of Sir2 and ARH3 were analyzed using reverse-phase HPLC at the same pH (FIGS. 11A,B). The products of the ARH3-catalyzed reaction were also analyzed by high resolution-polyacrylamide gel electrophoresis (FIG. 11C). O-acetyl-[^14C]ADP-ribose hydrolase activity was time and ARH3 dependent (FIG. 12) and essentially completely dependent on Mg^2+ (FIG. 13A).
O-acetyl-ADP-ribose hydrolysis by ARH1 was time and ARH1 dependent (FIG. 14b).

[2] = Poly(ADP-ribose) hydrolysis (autoradiography, high resolution PAGE, HPLC); type: biochemical; details: for Poly(ADP-ribose) hydrolysis (in words): [32P]poly(ADP-ribose) or poly(ADP-ribose)PARP, 37° C., autoradiography / PAGE / HPLC; for Release of [14C]ADP-ribose from [14C]poly(ADP-ribose)PARP relative to wild-type ARH3: 50 nM human ARH3 (wild-type or mutant), ~2 μM ADP-ribose, HPLC C18
Procedure: Poly(ADP-ribose) hydrolysis by autoradiography. [^32P]poly(ADP-ribose)PARP (500 ng of PARP with poly(ADP-ribose) was incubated (37° C., 2 h) with 2 μM ARH in 25 μl of 50 mM potassium phosphate buffer, pH 7.5, with or without 10 mM MgCl2 and/or 5 mM DTT. Reactions were stopped by adding 6 μl of 5× Laemmli buffer. Samples (20 μl) of proteins were separated by SDS-PAGE in 4-20% gels and transferred to nitrocellulose membranes that were exposed to X-ray film (Kodak) for 10 h.
Hydrolysis of poly(ADP-ribose) by PARG and ARH3. Purified [^32P] poly(ADP-ribose) (5.5×10^5 cpm, ˜300 nM ADP-ribose) was incubated for the indicated time at 37° C. in 25 μl of 50 mM potassium phosphate, pH 7.5, containing 10 mM MgCl2 and 5 mM DTT with enzyme or other additions as indicated and terminated by addition of 25 μl of 2× electrophoresis buffer (Invitrogen). [^32P]AMP was generated by incubation (37° C., 3 h) of 10 μM [^32P] NAD (10 μCi/reaction) with pyrophosphatase (40 units/mg from SIGMA, 1 mg/ml) in 25 μl of 50 mM KPO4, pH 7.5, and 10 mM MgCl2. [^32P] ADP-ribose was generated in a 25 μl mixture containing 50 mM KPO4, pH 7.5, 25 μg of activated CTA, 10 μM [^32P] NAD (10 μCi/reaction), 10 mM MgCl2, and 5 mM DTT, which was incubated at 30° C. overnight. [^32P] phosphoribosyl-AMP was generated by incubation (37° C., 3 h) of [^32P]poly(ADP-ribose) (5.5×10^5 cpm, ˜300 nM ADP-ribose) with Crotalus adamanteus phosphodiesterase (10 mU/reaction), 25 μl of 50 mM KPO4, pH 7.5, 10 mM MgCl2, and 5 mM DTT. Identities of AMP and ADP-ribose standards were confirmed by HPLC on C18 and SAX columns respectively.
High resolution Polyacrylamide Gel Electrophoresis (PAGE). Polyacrylamide (20%) gels (20×20×0.15 cm) containing polyacrylamide and bis(acrylamide), in a ratio of 19:1, 100 mM Tris-borate, pH 8.3, 2 mM EDTA, 4.4 mM ammonium persulfate, and 3.4 mM TEMED with electrophoresis carried out for 2 h at 400V with 50 mM Tris-borate, pH 8.3, 1 mM EDTA, before application of samples (15 μl) were used for analysis of poly(ADP-ribose) degradation. Subsequent electrophoresis at 400V was stopped when bromophenol blue (BPB) had moved 9 cm from the origin. Gels were exposed to X-ray films (Kodak).
HPLC analysis. HPLC, Hewlett-Packard series 1100 equipped with a diode-array spectrophotometric detector set at 254 nm, was used for separation of reaction products. For anion exchange perfusion chromatography, Zorbax SAX column (4.6×250 mm; DuPont, Wilmington Del.) was washed with 20 mM potassium phosphate, pH 4.5, for 30 min, followed by a linear gradient of 0-1M NaCl in the same buffer for 10 min (30-40 min), then same buffer with 1M NaCl for 10 min (40-50 min) at a flow rate of 1 ml/min. Nicotinamide was eluted at 3 min, NAD at 10 min, and ADP-ribose at 40 min. For reverse phase, Discovery C18 column (4.6×250 mm; SUPELCO, Bellefonte Pa.) was used. Samples were separated isocratically with 100 mM potassium phosphate, pH 6.0 containing 7% methanol at a same flow rate of 1 ml/min. ADP-ribose was eluted at 6 min, NAD at 8 min, nicotinamide 9 min.
Poly(ADP-ribose)PARP was used as substrate to assay potential poly(ADP-ribose) hydrolase activities of recombinant ARH1, 2 or 3. Products were identified by autoradiography and HPLC. Fractions (1 ml) were collected for liquid scintillation counting to quantify [^14C]ADP-ribose, which was eluted in fractions from 34 min to 43 min. Because ARH1 activity may require both DTT and Mg^2+, depending on species (Takada et al. (1993) J. Biol. Chem. 268:17837-17843; Moss et al. (1992) J. Biol. Chem. 267:10481-10488), these reactions were performed with or without 10 mM MgCl2, and/or 5 mM DTT. […] Degradation of [^32P]poly(ADP-ribose) by ARH3 was enhanced by 10 mM MgCl2 (FIG. 4A). Data were similar with mouse ARH3.
Samples of [^14C] ADP-ribosylated PARP (250 ng, 15,000 cpm, ˜850 nM ADP-ribose) were incubated at 37° C. (total volume, 100 μl) with human ARH3 as indicated. […]

| Molecule | O-acetyl-ADP-ribose hydrolysis (in words) [1] | Poly(ADP-ribose) hydrolysis (in words) [2] | Release of [14C]ADP-ribose from [14C]poly(ADP-ribose)PARP relative to wild-type ARH3 [2] |
| --- | --- | --- | --- |
| ARH2: recombinant mouse or human ARH2, structurally related 39-kDa ADP-ribose-binding protein (protein, listed as Homo sapiens) MEKFKAAMLLGSVGDALGYRNVCKENSTVGMKIQEELQRSGGLDHLVLSPGEWPVSDNTIMHIATAEALTTDYWCLDDLYREMVRCYVEIVEKLPERRPDPATIEGCAQLKPNNYLLAWHTPFNEKGSGFGAATKAMCIGLRYWKPERLETLIEVSVECGRMTHNHPTGFLGSLCTALFVSFAAQGKPLVQWGRDMLRAVPLAEEYCRKTIRHTAEYQEHWFYFEAKWQFYLEERKISKDSENKAIFPDNYDAEEREKTYRKWSSEGRGGRRGHDAPMIAYDALLAAGNSWTELCHRAMFHGGESAATGTIAGCLFGLLYGLDLVPKGLYQDLEDKEKLEDLGAALYRLSTEEK | appeared to be inactive | did not | – |
| mouse ARH3: murine ARH3 amino acid sequence SEQ ID NO: 6 (protein, listed as Mus musculus) MAVAAAAAATAMSAAGGGGASAARSISRFRGCLAGALLGDCVGAVYEAHDTVSLASVLSHVESLEPDPGTPGSARTETLYYTDDTAMTRALVQSLLAKEAFDEVDMAHRFAQEYKKDPDRGYGAGVITVFKKLLNPKCRDVYEPARAQFNGKGSYGNGGAMRVAGISLAYSSVQDVQKFARLSAQLTHASSLGYNGAILQALAVHLALQGVSSSEHFLEQLLGHMEELEGDAQSVLDAKELGMEERPYSSRLKKVGELLDQDVVSREEVVSELGNGIAAFESVPTAIYCFLRCMEPHPEIPSTFNSLQRTLIYSISLGGDTDTIATMAGAIAGAYYGMEQVPESWQQSCEGFEETDVLAQSLHRVFQESS | – | similar | – |
| ARH3 (E261Q/E262Q): human ARH3 mutant E261Q/E262Q (SEQ ID NO: 3) (protein, listed as Homo sapiens) MAAAAMAAAAGGGAGAARSLSRFRGCLAGALLGDCVGSFYEAHDTVDLTSVLRHVQSLEPDPGTPGSERTEALYYTDDTAMARALVQSLLAKEAFDEVDMAHRFAQEYKKDPDRGYGAGVVTVFKKLLNPKCRDVFEPARAQFNGKGSYGNGGAMRVAGISLAYSSVQDVQKFARLSAQLTHASSLGYNGAILQALAVHLALQGESSSEHFLKQLLGHMEDLEGDAQSVLDARELGMEERPYSSRLKKIGELLDQASVTRQQVVSELGNGIAAFESVPTAIYCFLRCMEPDPEIPSAFNSLQRTLIYSISLGGDTDTIATMAGAIAGAYYGMDQVPESWQQSCEGYEETDILAQSLHRVFQKS | rate similar to wild type | catalytic activities similar to that of the wild-type enzyme | ~98% |
| ARH3 (E238Q/E239Q): human ARH3 mutant E238Q/E239Q (SEQ ID NO: 4) (protein, listed as Homo sapiens) MAAAAMAAAAGGGAGAARSLSRFRGCLAGALLGDCVGSFYEAHDTVDLTSVLRHVQSLEPDPGTPGSERTEALYYTDDTAMARALVQSLLAKEAFDEVDMAHRFAQEYKKDPDRGYGAGVVTVFKKLLNPKCRDVFEPARAQFNGKGSYGNGGAMRVAGISLAYSSVQDVQKFARLSAQLTHASSLGYNGAILQALAVHLALQGESSSEHFLKQLLGHMEDLEGDAQSVLDARELGMQQRPYSSRLKKIGELLDQASVTREEVVSELGNGIAAFESVPTAIYCFLRCMEPDPEIPSAFNSLQRTLIYSISLGGDTDTIATMAGAIAGAYYGMDQVPESWQQSCEGYEETDILAQSLHRVFQKS | rate similar to wild type | catalytic activities similar to that of the wild-type enzyme | ~97% |
